Earlier results in patent publication US20250034272A1, “COMPOSITIONS AND METHODS FOR TREATING SEVERE ASTHMA” (Equillium, Inc., priority 2018, published 2025).

Test system: Th1/Th17 type T cells
Conditions: stated as known ability

B1: EQ001: humanized anti-CD6 monoclonal antibody, VH/VK SEQ ID NOS: 1 and 2; itolizumab produced in CHO cells (antibody, V domains shown)
VH: EVQLVESGGGLVKPGGSLKLSCAASGFKFSRYAMSWVRQAPGKRLEWVATISSGGSYIYYPDSVKGRFTISRDNVKNTLYLQMSSLRSEDTAMYYCARRDYDLDYFDSWGQGTLVTVSS
VL: DIQMTQSPSSLSASVGDRVTITCKASRDIRSYLTWYQQKPGKAPKTLIYYATSLADGVPSRFSGSGSGQDYSLTISSLESDDTATYYCLQHGESPFTLGSGTKLEIK
modifications: humanized T1h VH sequence; humanized T1h VL sequence
notes: itolizumab produced in CHO cells
inhibition of activation and migration of Th1/Th17 type T cells: inhibit activation and migration
